Patent publication US20050009745A1, “TSG101 as inhibitor of HIV production” (priority 2001, published 2005)
Where no end group is shown, it is not given here.

Experiments:
HIV-1 particles = assay: Release of HIV-1 virus-like particles from transfected COS-1 cells, Western blot with anti-CA; format: cell-based
[1] = Solubility of the peptide; format: physicochemical; settings: precluded testing at higher concentrations
[2] = biological target: GAL4 activation domain-Tsg101 fusion protein (wild-type human Tsg101) (yeast; human) (UniProt Q99816); assay: cell-based or functional assay
[3] = biological target: GAL4 DNA-binding domain-p1-p6 fusion protein (yeast; HIV-1) (UniProt P04386); assay: cell-based or functional assay
HIV-1 Gag = format: cell-based

Molecule: CC(C)CC[C@@H](O)[C@](C)(O)[C@H]1CC[C@@]2(O)C3=CC(=O)[C@@H]4C[C@@H](O)[C@@H](O)C[C@]4(C)[C@H]3CC[C@]12C [pa, pronasterone, reference compound]
- effect on virus particle release (HIV-1 particles): no inhibitory effect

Molecule: ALQSRPEPTAPPEES
- solubility of the peptide [1]: limited solubility

Molecule: GAL4 DNA-binding domain-p1-p6 with both PTAPP motifs deleted (from UniProt P04386 1-147; P03347 435-512)
- β-galactosidase activity (yeast 2-hybrid) [2]: < 0.3%

Molecule: GAL4 DNA-binding domain-p1-p6 with the (LXX)4 repeat motif deleted (from UniProt P04386 1-147; P03347 435-512)
- β-galactosidase activity (yeast 2-hybrid) (% of wild-type) [2]: 55

Molecule: GAL4 DNA-binding domain-p1-p6 with the first PTAPP motif deleted (from UniProt P04386 1-147; P03347 435-512)
- β-galactosidase activity (yeast 2-hybrid) (% of wild-type) [2]: 50

Molecule: GAL4 DNA-binding domain-p1-p6 with the first PTAPP motif deleted and Ala for Pro7 in the second motif (from UniProt P04386 1-147; P03347 435-512)
- enzyme activity (β-galactosidase, yeast 2-hybrid) (% of wild-type) [2]: 25

Molecule: GAL4 DNA-binding domain-p1-p6 with the second PTAPP motif deleted (from UniProt P04386 1-147; P03347 435-512)
- β-galactosidase activity (yeast 2-hybrid) (% of wild-type) [2]: 25

Molecule: GAL4 activation domain-Tsg101 Y110W (from UniProt P04386 768-881)
- 2-hybrid assay, percent of wild-type interaction (% of wild-type) [3]: 31

Molecule: GAL4 activation domain-Tsg101 Y113V (from UniProt P04386 768-881)
- 2-hybrid assay, percent of wild-type interaction (% of wild-type) [3]: 33

Molecule: GAL4 activation domain-Tsg101 with Ala for Thr67-Tyr68-Asn69 (from UniProt P04386 768-881)
- 2-hybrid assay, percent of wild-type interaction (% of wild-type) [3]: 5

B1: SD5-59 (protein)
chain: MAVSESQLKKMVSKYKYRDLTVRETVNVITLYKDLKPVLDSYVFNDGSSRELMNLTGTIPVPYRGNTYNIPICLWLLDTYPYNPPICFVKPTSSMTIKTGKHVDANGKIYLPYLHEWKHPQSDLLGLIQVMIVVFGDEPPVFSRPISASYPPYQATGPPNTSYMPGMPGGISPYPSGYPPNPSGYPGCPYPPGGPYPATTSSQYPSQPPVTTVGPSRDGTISEDTIRASLISAVSDKLRWRMKEEMDRAQAELNALKRTEEDLKKGHQKLEEMVTRLDQEVAEVDKNIELLKKKDEELSSALEKMENQSENNDIDEVIIPTAPLYKQILNLYAEENAIEDTIFYLGEGGVIDLDVFLKHVRLLSRKQFQLRALMQKARKTAGLSDLY
modifications: left off: small tags and cut ends
- viral protein in P1 fraction (HIV-1 Gag): no protein was found
- viral protein in S1 fraction (HIV-1 Gag): detectable levels of viral protein
- Gag processing in released particles (HIV-1 particles; COS cells, wild-type gag, 1 and 5 μM pa): accumulation of particle-associated uncleaved Gag precursor
- release of virus particles (HIV-1 particles; COS cells, wild-type gag, increasing expression with 1 and 5 μM pa): permitted release of virus particles

B2: pIND-h-Tsg101-FLAG: wild-type human Tsg101, FLAG-tagged, inducibly over-expressed from plasmid (protein)
chain: MAVSESQLKKMVSKYKYRDLTVRETVNVITLYKDLKPVLDSYVFNDGSSRELMNLTGTIPVPYRGNTYNIPICLWLLDTYPYNPPICFVKPTSSMTIKTGKHVDANGKIYLPYLHEWKHPQSDLLGLIQVMIVVFGDEPPVFSRPISASYPPYQATGPPNTSYMPGMPGGISPYPSGYPPNPSGYPGCPYPPGGPYPATTSSQYPSQPPVTTVGPSRDGTISEDTIRASLISAVSDKLRWRMKEEMDRAQAELNALKRTEEDLKKGHQKLEEMVTRLDQEVAEVDKNIELLKKKDEELSSALEKMENQSENNDIDEVIIPTAPLYKQILNLYAEENAIEDTIFYLGEALRRGVIDLDVFLKHVRLLSRKQFQLRALMQKARKTAGLSDLY
modifications: left off: small tags and cut ends
notes: wild-type human Tsg101, FLAG-tagged, inducibly over-expressed from plasmid
- viral protein in P1 fraction (HIV-1 Gag): no detectable viral protein
- viral protein in S1 fraction (HIV-1 Gag): no detectable viral protein
- release of immature particles containing GagΔp6 (HIV-1 particles; COS-1 cells, gagΔp6, Tsg101 overexpression, 0, 1, 5 μM pa): not significantly affected
- amount of mature CA in released virus, of the control (0 μM pa) level (HIV-1 particles; COS-1 cells, wild-type gag, 1 μM pa inducer): ~60%
- amount of mature CA in released virus, of the control (0 μM pa) level (HIV-1 particles; COS-1 cells, wild-type gag, 5 μM pa inducer): ~30%
